From US11723946B2, “Methods for regulating transcription of multiple genes and expression of multiple targets” (CHINA MEDICAL UNIVERSITY, priority 2014, dated 2023)

What was measured:
IL-1β = test: Immunohistochemistry staining of organs, LPS-induced mice; type: in vivo; settings: group 3 vs group 2 (LPS)
Method: (§1) Immunohistochemistry (IHC) would be known by an ordinary person skilled in the art. The organs were collected from the mice of the each group for paraffin embedding and histology section. The parafilm-embedded organs were cut into […] sections, deparaffinized in xylene and then rehydrated in graded alcohol. Endogenous peroxidase was quenched with 3% hydrogen peroxide in methanol for 15 mins and the nonspecific binding was blocked with 1% bovine serum albumin at room temperature for 1 hour. The blocked sections were further incubated with 50-folds diluted mouse monoclonal antibodies against p56, TNF-α or IL-1β proteins at 4° C. for 16-18 hours, respectively and then incubated with biotinylated secondary antibodies (Zymed Laboratories, South San Francisco, Calif.) that against the Fc fragment of the co-responding first antibody at room temperature for 20 minutes. Finally, the slides were incubated with avidin-biotin complex reagent and stained with 3,3′-diaminobenzidine according to manufacturer's protocol (Histostain®-Plus Kit, Zymed Laboratories, South San Francisco, Calif.).

TNF-α = test: as above; type: in vivo; settings: group 3 vs group 2 (LPS)
Method: as §1

[1] = Hepatic histology (H&E, oil red-O) in high fat diet mice; type: in vivo; settings: 10 mmol/kg peritoneal injection twice weekly, 4 weeks, group 3 vs group 2
Method: (§2) 30 wild-type FVB mice were randomly divided into three groups, wherein the mice of the group 1 were the blank group that were fed with normal condition. The mice of the control group (the group 2) and the experimental group (the group 3) were fed with high fat diet. […] The mice in the group 2 and the group 3 were peritoneally injected with 100 μl of PBS.
(§3) After the administration, livers in the mice of the each group were collected for the histology sections. The hepatic histology of livers in the mice of the each group was […] for H&E staining and oil red-O staining to examined the lipid accumulation in liver, respectively. Furthermore, the product of lipid oxidation in hepatocytes was examined by IHC staining described in example 3 with antibodies against 4-hydroxynonenal ([…]) or malondialdehyde (MDA) on the hepatic tissues of the each group.

[2] = test system: 4-hydroxynonenal, malondialdehyde; test: IHC of lipid oxidation products in hepatic tissue, high fat diet mice; type: in vivo; settings: 10 mmol/kg peritoneal injection twice weekly, 4 weeks, group 3 vs group 2
Method: as §2, §3

[3] = Fat accumulation in genetic deficient mice with massive abdominal fat; type: in vivo
Method: The mice were divided into control group and experimental group. […] In addition, the mice in the control group were peritoneally injections with 100 ul of PBS.
During the treatment period, the body weight and dietary intake of the mice were recorded at the regular time points. After the treatment, the gross views of whole animals were recorded by photographing. In the following, the fat pads of the mice were collected for the measurement of fat pad weight. The histological examination was performed to determine the number and size of the adipocytes in the mice of the both groups. Furthermore, the percentage of body fat was calculated according the formulation: (fat weight/body weight)×100%, and shown in table 4.

[4] = Survival, diabetes incidence and retinopathy in NOD mice; type: in vivo; settings: 20 weeks; for Incidence of diabetes, mice/mice: control 2/6; for Diabetes-induced retinopathy, mice/mice: control 3/6; for Survival rate, mice/mice: control 4/6
Method: (§4) 23 mice were divided into four groups with different administrations for 20 weeks, wherein 6 mice of the group 1 were control mice that were daily orally administrated with 20 μl of PBS. 6 mice of the group 2 were daily orally administrated with 20 μl of 0.01 umol/kg solution that contained the present polypeptide comprising the amino acid sequence of SEQ ID No. 1. 6 mice of the group 3 were daily orally administered with 20 μl of 0.1 umol/kg solution that contained the present polypeptide comprising the amino acid sequence of SEQ ID No. 1. 5 mice of the group 4 were daily orally administrated with 20 μl of 1 umol/kg solution that contained the present polypeptide comprising the amino acid sequence of SEQ ID No. 1.
(§5) During the administration period, the survival rate, incidence of diabetes and diabetes-induced retinopathy in the each group were measured and shown in table 5. After the administration, the blood samples were collected for serological and biochemical analysis.

[5] = Serological and biochemical analysis in NOD mice; type: in vivo; settings: 20 weeks; for Creatinine in serum: control 0.70 ± 0.05; for BUN: control 40.50 ± 4.54
Method: as §4, §5

[6] = test system: Fat pad (fatty acid metabolism genes); settings: Up-regulated, 2.5 mmol/kg daily, 7 days
Method: The wild-type FVB mice were divided into the control group and the experimental group, wherein the mice in the experimental group were daily administered with 20 μl peptide-containing solution that contains 2.5 mmol/kg of the present peptide for 7 days. Moreover, the mice in the control group were daily administrated with 20 μl PBS solution for 7 days.
After the daily administration, the tissues of column, muscle, fat pad, liver and kidney were collected for analyzing the expression of multiple targets by system biology analysis. Herein, the altered expressions of the targets in the genome were determined by using DNA microarray which is a well-established tool for systematic biology analysis. Furthermore, the results of the DNA microarray were further categorized and analyzed by bioinformatics analysis to determine the effect and affected signaling pathways of the present polypeptide.
(1) RNA preparation: The total RNA was extracted from the tissue by using RNeasy Mini Kit (Qiagen, Valencia, Calif., USA). The amount of the extracted total RNA was measured by Beckman DU800 spectrophotometer (Beckman Coulter, Fullerton, Calif., USA). In the next step, the quality of the RNA sample with A260/A280 ratio more than 1.8 was further evaluated by Agilent 2100 bioanalyzer (Agilent Technologies, Santa Clara, Calif., USA). When with the RNA integrity number of the sample is more than 8.0, it would be analyzed by the following microarray analysis.
(2) DNA microarray analysis: The procedure of DNA microarray analysis was conducted according to the reference (Cheng, 2007). Briefly, 5 μg of total RNA was amplified by in vitro transcription using MessageAmp™ aRNA kit (Ambion). In the following, the fluorescence dye, Cy5, was chemically labeled on the amplified RNA (aRNA). After the labeling, the fluorescence labeled aRNA was hybridized with Whole Genome OneArray™ in hybridization buffer (Phalanx Biotech Group, Taiwan) on cover slide. Following the hybridization reaction at 50° C. over-night, the non-specific binding on the chip was washed by three washing steps. The washed chip was dried by centrifugation and was scanned by Axon 4000 scanner (Molecular Devices, Sunnyvale, Calif., USA) to measure the fluorescence signals. The fluorescence intensity of Cy5 on each spots was further analyzed by genepix 4.1 (Molecular Devices). First, the signals of each spot were adjusted by deducting the intensity of background. In the next step, the spots including the probes of internal controls or the spots with the signal-to-noise ratios less than 0 would be removed. The qualified spots were normalized by limma package which is belonged to R console (Smyth, 2005).

[7] = experimental group vs control group, in words
[8] = Group 2: 0.01 umol/kg daily oral
[9] = Group 3: 0.1 umol/kg daily oral

Chain of IL-1β (P10749 118-269): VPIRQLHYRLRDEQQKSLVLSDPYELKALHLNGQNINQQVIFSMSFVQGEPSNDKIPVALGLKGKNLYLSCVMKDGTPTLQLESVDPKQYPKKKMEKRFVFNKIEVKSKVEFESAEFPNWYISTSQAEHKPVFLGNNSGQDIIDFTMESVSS

B1: present polypeptide: polypeptide comprising the amino acid sequence of SEQ ID No. 1; made by peptide synthesis, recombinant expression or extraction from Momordica charantia (peptide, listed as Artificial synthsis)
chain: SRCQGKSSWPQLVGSTGAAAKAWIERENPRVRAVIIKVGSGATKDFRCDRVRVWVTERGIVARPPTIG
brown zone (active IL-1β signal) in tissue, IHC (IL-1β): obviously less than the group 2 | brown zone (active TNF-α signal) in tissue, IHC (TNF-α): obviously less than the group 2 | lipid accumulation in the liver [1]: less lipid accumulation | products of lipid oxidation (HNE, MDA) in hepatic tissue [2]: obviously decreased | Fat weight ([3]; Experimental mice, 2.5 nmol/kg peritoneal twice a week, 4 weeks, control 2.53 ± 0.19): 1.90 ± 0.41 g | Body weight at end point ([3]; Experimental mice, 2.5 nmol/kg peritoneal twice a week, 4 weeks, control 71.95 ± 6.25): 72.54 ± 7.24 g | Body fat ([3]; Experimental mice, (fat weight/body weight)×100%, control 3.68 ± 0.16): 2.74 ± 0.21% | fat weight compared with control group [3, 7]: obviously decreased | percentage of body fat compared with control group [3, 7]: obviously decreased | Incidence of diabetes, mice/mice [4, 8]: 0/6 | Diabetes-induced retinopathy, mice/mice [4, 8]: 0/6 | Survival rate, mice/mice [4, 8]: 6/6 | Incidence of diabetes, mice/mice [4, 9]: 0/6 | Diabetes-induced retinopathy, mice/mice [4, 9]: 1/6 | Survival rate, mice/mice [4, 9]: 6/6 | Incidence of diabetes, mice/mice ([4]; Group 4: 1 umol/kg daily oral): 1/5 | Diabetes-induced retinopathy, mice/mice ([4]; Group 4: 1 umol/kg daily oral): 1/5 | Survival rate, mice/mice ([4]; Group 4: 1 umol/kg daily oral): 5/5 | Creatinine in serum [5, 8]: 0.64 ± 0.12 mg/dL | BUN [5, 8]: 37.38 ± 2.77 mg/dL | Creatinine in serum [5, 9]: 0.69 ± 0.06 mg/dL | BUN [5, 9]: 38.50 ± 4.69 mg/dL | Creatinine in serum ([5]; Group 4: 1 umol/kg daily oral): 0.69 ± 0.06 mg/dL | BUN ([5]; Group 4: 1 umol/kg daily oral): 35.88 ± 6.33 mg/dL | Fold, Acox1 [6]: Up-regulated 2.0 folds | Fold, Acsl4 [6]: Up-regulated 5.1 folds | Fold, Cpt1a [6]: Up-regulated 3.1 folds | Fold, Cpt2 [6]: Up-regulated 1.5 folds | Fold, Hsd17b4 [6]: Up-regulated 1.7 folds | Fold, Sirt1 [6]: Up-regulated 3.0 folds
